Measured values as given in patent publication US20240409620A1 (published 2024).
Changes are numbered by the printed parent chain. Names and notes keep the numbering of the source. Where two headings read alike, the source gives them in different places.

B1: 4F1En1 (VH-S75R) (antibody, V domains shown)
VH: QVQLVESGGGVVQPGRSLRLSCAASGFSFYSYSVHWVRQAPGKGLEWVADVVYDGNHQHYTDSVKGRFTISRDTRKNTVYLQMGSLRAEDTALYYCTARSLVITLAGAGRDDYWGQGTTVTVSS
VL: DIVMTQSPLSLPVTPGEPASISCRSSQSLLHSNGYTYLDWYLQKPGQSPQLLIFLGSSRASGVPDRFSGSGSGTDFTLKISRVEAEDVGVYYCVQDLQTSLTFGGGTKLEIKR
B2: 4F1 germline reversion (antibody, V domains shown)
VH: B1 VH with R75S
VL: B1 VL
B3: fully human monoclonal antibody 4F1 wild type (antibody, V domains shown)
VH: B1 VH with Q1E, E6Q, Q13R, D62E, K65R, T69S, R75S, K76T, A88P, T119R
VL: DIVMTQSPLSLSVTPGEPASISCKSSQSLLHSNGYTYLDWYLQKPGKSPQLLIFLGSSRASGVPARFSGSGSGTDFTLEISRVEAEDVGVYYCVQDLQTSLTFGGGTKVDIK
B4: MEDI8897 (antibody, V domains shown)
VH: QVQLVQSGAEVKKPGSSVMVSCQASGGLLEDYIINWVRQAPGQGPEWMGGIIPVLGTVHYGPKFQGRVTITADESTDTAYMELSSLRSEDTAMYYCATETALVVSETYLPHYFDNWGQGTLVTVSS
VL: DIQMTQSPSSLSAAVGDRVTITCQASQDIVNYLNWYQQKPGKAPKLLIYVASNLETGVPSRFSGSGSGTDFSLTISSLQPEDVATYYCQQYDNLPLTFGGGTKVEIK
B5: Palivizumab (SYNAGIS) (antibody, V domains shown)
VH: QVTLRESGPALVKPTQTLTLTCTFSGFSLSTSGMSVGWIRQPPGKALEWLADIWWDDKKDYNPSLKSRLTISKDTSKNQVVLKVTNMDPADTATYYCARSMITNWYFDVWGAGTTVTVSS
VL: DIQMTQSPSTLSASVGDRVTITCKCQLSVGYMHWYQQKPGKAPKLLIYDTSKLASGVPSRFSGSGSGTEFTLTISSLQPDDFATYYCFQGSGYPFTFGGGTKLEIK

Key:
[1] = target: T1, RSV/B/B9320 pre-fusion F protein (respiratory syncytial virus RSV/B/B9320); test: BLI
[2] = target: T2, RSV/A/A2 pre-fusion F protein (respiratory syncytial virus RSV/A/A2, UniProt P03420 26-109); test: BLI
[3] = target: T2, RSV/A/A2 pre-fusion F protein; test: ELISA
[4] = target: T1, RSV/B/B9320 pre-fusion F protein; test: ELISA
[5] = target: T2, RSV/A/A2 pre-fusion F protein; test: BLI; remark: listed apart in the source

Row | Binder | Kd [1] [nM] | Kd [2] [nM] | EC50 [3] [µg/mL] | EC50 [4] [µg/mL] | Kd [5] [nM]
1 | B1 | 0.0018 | < 0.001 | 0.0245 | 0.0565 | 
2 | B2 |  |  | 0.0536 | 0.0781 | 
3 | B3 | 0.0684 |  |  | 0.111 | 
4 | B4 | 0.66 |  |  |  | 0.0172
5 | B5 | 0.362 |  |  |  | 0.0407
